In PMC4513104, “Fatty Acid-binding Proteins Interact with Comparative Gene Identification-58 Linking Lipolysis with Lipid Ligand Shuttling*” (The Journal of Biological Chemistry, 2015) one finds binding result and Kd data, which are given here for one molecule.

One assay has as its target T1, m^solCgi-58 (mouse, UniProt Q9DBL9 2-351, S239E).
T1 construct: mouse Cgi-58, Lys-2–Asp-351, with S239E; preceded by a TEV protease cleavage site and cleaved by TEV; used for NMR experiments only; also called mCgi-58^S239E; cgi-58_S239E variant with increased solubility; source: E. coli BL21(DE3), co-expressed with the chaperone Tig, purified (His-Trap, TEV cleavage, Superdex 200); not shown: His tag, N-terminal, cleaved; SUMO, N-terminal, cleaved
T1 sequence (looked up): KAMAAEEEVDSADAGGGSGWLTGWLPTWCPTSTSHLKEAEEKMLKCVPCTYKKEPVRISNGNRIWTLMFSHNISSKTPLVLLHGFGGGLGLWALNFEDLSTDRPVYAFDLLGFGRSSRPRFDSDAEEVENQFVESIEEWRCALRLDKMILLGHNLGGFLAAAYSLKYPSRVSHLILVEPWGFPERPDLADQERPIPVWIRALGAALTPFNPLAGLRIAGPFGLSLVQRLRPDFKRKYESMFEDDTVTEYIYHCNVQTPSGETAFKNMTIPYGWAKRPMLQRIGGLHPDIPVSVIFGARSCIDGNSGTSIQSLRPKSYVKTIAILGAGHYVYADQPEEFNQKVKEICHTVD
Kind of assay: NMR titration; 1H-15N HSQC of 50 μM 15N labeled A-Fabp with 0, 10, 25, 50, 100 and 200 μM m^solCgi-58; 15 mM Na2HPO4/KH2PO4, pH 7.0, 300 mM NaCl, 1 mM DTT, 1 mM EDTA; 298 K. To be noted: both partners purified.

The target of the next assay is T2, Gst-Cgi-58 (mouse, UniProt Q9DBL9 1-351, Sulfo-SBED cross-linker covalently linked (label transfer); fluorescent label NT-495 by NHS coupling (microscale thermophoresis)).
T2 construct: comparative gene identification-58 (Cgi-58), mouse; also called Gst-tagged Cgi-58; mouse Gst-Cgi-58
T2 sequence (looked up): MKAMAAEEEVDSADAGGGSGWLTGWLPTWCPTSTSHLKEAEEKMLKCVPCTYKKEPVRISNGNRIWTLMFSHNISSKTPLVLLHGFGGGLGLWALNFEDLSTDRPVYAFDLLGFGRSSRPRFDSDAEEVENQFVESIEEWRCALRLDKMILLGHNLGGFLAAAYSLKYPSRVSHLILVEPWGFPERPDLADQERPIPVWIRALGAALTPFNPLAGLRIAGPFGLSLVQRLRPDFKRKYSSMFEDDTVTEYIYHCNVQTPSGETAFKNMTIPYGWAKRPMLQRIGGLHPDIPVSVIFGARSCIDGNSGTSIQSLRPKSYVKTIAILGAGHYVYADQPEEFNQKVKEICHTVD
Kind of assay: MST; Gst-tagged Cgi-58 labelled with NT-495 (NHS coupling) at constant amount; unlabeled Strep-tagged A-Fabp 8 nM to 250 μM; 100 mM Tris, pH 8.0, 150 mM NaCl, 1 mM EDTA, 0.05% Tween 20; Monolith NT.115, duplicate. The conditions noted are these: both partners purified.

B1: Strep-tagged A-Fabp (natural protein, human, UniProt P15090 1-132, looked up)
chain: MCDAFVGTWKLVSSENFDDYMKEVGVGFATRKVAGMAKPNMIISVNGDVITIKSESTFKNTEISFILGQEFDEVTADDRKVKSTITLDGGVLVHVQKWDGKSTTIKRKREDDKLVVECVMKGVTSTRVYERA
modifications: 15N (and 13C) labelled in the NMR experiments
notes: residue numbers start with methionine as the first amino acid; vector pASK-IBA5plus; also called Strep-A-Fabp; source: E. coli BL21(DE3), purified (Strep-Tactin)
One may read the Kd as the free concentration of one partner at which half of the binding sites on the other are occupied at equilibrium, for simple one-to-one binding. Lower therefore signals tighter binding. For B1, the binding result with m^solCgi-58 is “binds”. This molecule yielded a Kd with Gst-Cgi-58 of 192 ± 22 µM.
